Measurements as given in patent US20060251646A1 (CELLACT PHARMA, published 2006).

T1: peptide 6 (TIRC7 derived peptide DLPDASVNGWSSDE)
T1 construct: Fragment of TIRC7, used coated on ELISA plates at 100 ng peptide/well; also called Peptid6
T1 peptide: DLPDASVNGWSSDE

B1: murine Neliximab (murine anti-human TIRC7 monoclonal antibody, clone #17) (antibody, V domains shown)
VH: EVQLQQSGPELVKPGASVKMSCKASGYTFTTYVMHWVKQKPGQGLEWIGYINPYNDGTNYNEKFKGKATLTSDKSSSTAYMELSTLTSEDSAVYYCAEFITKTVGGSNWYLDVWGAGTTVTVSS
VL: QIVLTQSPAIMSASPGEKVTMTCSASSSISYIHWFQQKPGTSPKRWIYDTSKLPSGVPARFSGSGSGTSYSLTISSMEAEDAATYYCHQRSSYTWTFGGGTKLEIKR
notes: also called murine anti-human TIRC7 mAb; murine mAb
B2: Neliximab (chimeric murine/human anti-human TIRC7 monoclonal antibody) (antibody, V domains shown)
VH: EVQLQQSGPELVKPGASVKMSCKASGYTFTTYVMHWVKQKPGQGLEWIGYINPYNDGTNYNEKFKGKATLTSDKSSSTAYMELSTLTSEDSAVYYCAEFITKTVGGSNWYLDVWGAGTTVTVSS
VL: QIVLTQSPAIMSASPGEKVTMTCSASSSISYIHWFQQKPGTSPKRWIYDTSKLPSGVPARFSGSGSGTSYSLTISSMEAEDAATYYCHQRSSYTWTFGGGTKLEIK
notes: also called chimeric Neliximab; chimeric anti-human TIRC7 mAb

Legend:
[1] = target: T1, peptide 6 (TIRC7 derived peptide …); assay: method not stated
[2] = target: human T-cell immune response cDNA 7 (TIRC7) protein (human, UniProt Q13488 1-830); assay: cell-based or functional assay
Sequence of human T-cell immune response cDNA 7 (TIRC7) protein (Q13488 whole entry): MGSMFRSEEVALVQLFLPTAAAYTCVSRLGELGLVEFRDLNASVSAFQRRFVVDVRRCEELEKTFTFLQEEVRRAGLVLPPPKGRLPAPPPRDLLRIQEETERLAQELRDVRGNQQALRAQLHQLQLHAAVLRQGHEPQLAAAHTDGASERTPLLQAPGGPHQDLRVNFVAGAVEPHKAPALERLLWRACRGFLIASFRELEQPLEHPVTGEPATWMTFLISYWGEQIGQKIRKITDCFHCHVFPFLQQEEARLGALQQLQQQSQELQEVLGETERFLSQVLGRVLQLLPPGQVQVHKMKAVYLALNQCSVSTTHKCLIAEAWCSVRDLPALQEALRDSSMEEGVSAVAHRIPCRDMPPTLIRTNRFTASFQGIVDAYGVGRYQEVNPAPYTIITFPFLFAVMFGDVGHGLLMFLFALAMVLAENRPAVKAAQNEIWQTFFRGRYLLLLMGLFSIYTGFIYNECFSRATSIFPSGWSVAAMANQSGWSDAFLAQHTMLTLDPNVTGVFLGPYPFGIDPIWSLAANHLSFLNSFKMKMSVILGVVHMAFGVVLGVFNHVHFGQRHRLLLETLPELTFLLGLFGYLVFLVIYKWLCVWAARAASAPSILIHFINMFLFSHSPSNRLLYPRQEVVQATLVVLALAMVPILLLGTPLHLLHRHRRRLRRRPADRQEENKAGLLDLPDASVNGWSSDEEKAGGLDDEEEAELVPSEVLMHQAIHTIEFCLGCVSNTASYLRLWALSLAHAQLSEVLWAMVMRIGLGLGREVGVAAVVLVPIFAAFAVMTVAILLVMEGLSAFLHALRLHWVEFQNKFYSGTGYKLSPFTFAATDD

Binder	Kd [1] [nM]	Inhibition of cytokine secretion (IFNγ) calculated relative to the isotype control at the same concentration, PHA-stimulated human PBMC, 10 µg/ml murine Neliximab [2] [%]	Inhibition of cytokine secretion (IFNγ) calculated relative to the isotype control at the same concentration, PHA-stimulated human PBMC, 50 µg/ml murine Neliximab [2] [%]	Inhibition of cytokine secretion (IFNγ) calculated relative to the isotype control at the same concentration, PHA-stimulated human PBMC, 100 µg/ml murine Neliximab [2] [%]	Inhibition of cytokine secretion (IFNγ) calculated relative to the isotype control at the same concentration, PHA-stimulated human PBMC, 200 µg/ml murine Neliximab [2] [%]
B1	1	78	39	20	3
B2	1	–	–	–	–
